{
  "source": "IntAct's records for PubMed 17024180",
  "parents": {"B1": {"name": "Tyrosine-protein kinase JAK2 (Mus musculus), Q62120 (parent)", "chain": "MGMACLTMTEMEATSTSPVHQNGDIPGSANSVKQIEPVLQVYLYHSLGQAEGEYLKFPSGEYVAEEICVAASKACGITPVYHNMFALMSETERIWYPPNHVFHIDESTRHDILYRIRFYFPHWYCSGSSRTYRYGVSRGAEAPLLDDFVMSYLFAQWRHDFVHGWIKVPVTHETQEECLGMAVLDMMRIAKEKDQTPLAVYNSVSYKTFLPKCVRAKIQDYHILTRKRIRYRFRRFIQQFSQCKATARNLKLKYLINLETLQSAFYTEQFEVKESARGPSGEEIFATIIITGNGGIQWSRGKHKESETLTEQDVQLYCDFPDIIDVSIKQANQECSNESRIVTVHKQDGKVLEIELSSLKEALSFVSLIDGYYRLTADAHHYLCKEVAPPAVLENIHSNCHGPISMDFAISKLKKAGNQTGLYVLRCSPKDFNKYFLTFAVERENVIEYKHCLITKNENGEYNLSGTKRNFSNLKDLLNCYQMETVRSDSIIFQFTKCCPPKPKDKSNLLVFRTNGISDVQISPTLQRHNNVNQMVFHKIRNEDLIFNESLGQGTFTKIFKGVRREVGDYGQLHKTEVLLKVLDKAHRNYSESFFEAASMMSQLSHKHLVLNYGVCVCGEENILVQEFVKFGSLDTYLKKNKNSINILWKLGVAKQLAWAMHFLEEKSLIHGNVCAKNILLIREEDRRTGNPPFIKLSDPGISITVLPKDILQERIPWVPPECIENPKNLNLATDKWSFGTTLWEICSGGDKPLSALDSQRKLQFYEDKHQLPAPKWTELANLINNCMDYEPDFRPAFRAVIRDLNSLFTPDYELLTENDMLPNMRIGALGFSGAFEDRDPTQFEERHLKFLQQLGKGNFGSVEMCRYDPLQDNTGEVVAVKKLQHSTEEHLRDFEREIEILKSLQHDNIVKYKGVCYSAGRRNLRLIMEYLPYGSLRDYLQKHKERIDHKKLLQYTSQICKGMEYLGTKRYIHRDLATRNILVENENRVKIGDFGLTKVLPQDKEYYKVKEPGESPIFWYAPESLTESKFSVASDVWSFGVVLYELFTYIEKSKSPPVEFMRMIGNDKQGQMIVFHLIELLKSNGRLPRPEGCPDEIYVIMTECWNNNVSQRPSFRDLSLRVDQIRDSIAA", "partner": "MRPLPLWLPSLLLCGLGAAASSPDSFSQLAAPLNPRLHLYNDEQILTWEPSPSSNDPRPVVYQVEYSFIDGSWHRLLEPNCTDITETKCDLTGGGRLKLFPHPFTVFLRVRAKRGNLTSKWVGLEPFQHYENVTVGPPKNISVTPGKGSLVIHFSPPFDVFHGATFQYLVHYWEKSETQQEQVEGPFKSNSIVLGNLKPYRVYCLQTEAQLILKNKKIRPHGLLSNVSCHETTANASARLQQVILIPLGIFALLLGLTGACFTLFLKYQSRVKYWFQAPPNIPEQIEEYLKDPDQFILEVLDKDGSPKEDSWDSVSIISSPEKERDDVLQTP"}, "B2": {"name": "Tyrosine-protein kinase JAK2 (Mus musculus), Q62120 (parent)", "chain": "B1 chain", "partner": "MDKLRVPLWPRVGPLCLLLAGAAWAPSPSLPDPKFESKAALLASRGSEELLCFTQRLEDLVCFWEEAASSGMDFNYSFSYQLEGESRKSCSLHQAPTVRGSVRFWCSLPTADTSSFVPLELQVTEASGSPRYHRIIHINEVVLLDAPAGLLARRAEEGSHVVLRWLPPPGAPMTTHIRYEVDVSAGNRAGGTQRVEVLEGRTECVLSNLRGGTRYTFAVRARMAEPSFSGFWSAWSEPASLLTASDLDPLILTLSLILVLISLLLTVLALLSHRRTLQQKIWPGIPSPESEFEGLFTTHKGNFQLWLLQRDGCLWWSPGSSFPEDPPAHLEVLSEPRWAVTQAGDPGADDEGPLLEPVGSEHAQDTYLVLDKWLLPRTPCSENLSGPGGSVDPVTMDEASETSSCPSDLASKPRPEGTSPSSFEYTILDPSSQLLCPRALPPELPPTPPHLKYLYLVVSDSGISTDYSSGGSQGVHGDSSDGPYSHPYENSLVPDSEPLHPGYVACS"}},
  "data": [
    {"variants_of": "B1", "settings": "with Ifngr2, Q63953", "values": [
      {"variant": "Y119E", "effect of a mutation on the interaction": "decreasing interaction"},
      {"variant": "Y1007F", "effect of a mutation on the interaction": "decreasing interaction"}
    ]},
    {"variants_of": "B2", "settings": "with epor_mouse Epor", "values": [
      {"variant": "Y119E", "effect of a mutation on the interaction": "disrupting interaction"},
      {"variant": "Y1007F", "effect of a mutation on the interaction": "decreasing interaction"}
    ]}
  ]
}
